Ends that are not written are not given here. * marks the point of attachment. Biotin = O=C1N[C@H]2[C@H](CS[C@H]2CCCCC(=O)*)N1
Assays:
[1] = target: T1, LKB1 (Homo sapiens, UniProt Q15831); test: in vitro kinase assay screen with LKB1 and candidate biosensor peptides (LC ESI-MS readout); type: biochemical; details: 15 nM kinase, 20 μM peptide, 100 μM ATP, 37° C., 3 hr reaction
T1 sequence (Q15831 1-433): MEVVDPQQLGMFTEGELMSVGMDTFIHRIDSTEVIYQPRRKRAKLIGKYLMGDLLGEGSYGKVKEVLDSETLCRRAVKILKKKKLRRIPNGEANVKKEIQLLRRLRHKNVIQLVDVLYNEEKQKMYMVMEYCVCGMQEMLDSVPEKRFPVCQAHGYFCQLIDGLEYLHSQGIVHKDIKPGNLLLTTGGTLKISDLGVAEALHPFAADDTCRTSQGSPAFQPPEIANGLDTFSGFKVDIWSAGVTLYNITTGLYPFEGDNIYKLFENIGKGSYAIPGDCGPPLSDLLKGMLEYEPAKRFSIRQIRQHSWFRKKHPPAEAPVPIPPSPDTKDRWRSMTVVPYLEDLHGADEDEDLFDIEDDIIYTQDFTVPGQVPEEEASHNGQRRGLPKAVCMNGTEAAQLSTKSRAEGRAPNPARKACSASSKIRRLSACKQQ
T1 sequence (Q7RTN6 1-431 partner): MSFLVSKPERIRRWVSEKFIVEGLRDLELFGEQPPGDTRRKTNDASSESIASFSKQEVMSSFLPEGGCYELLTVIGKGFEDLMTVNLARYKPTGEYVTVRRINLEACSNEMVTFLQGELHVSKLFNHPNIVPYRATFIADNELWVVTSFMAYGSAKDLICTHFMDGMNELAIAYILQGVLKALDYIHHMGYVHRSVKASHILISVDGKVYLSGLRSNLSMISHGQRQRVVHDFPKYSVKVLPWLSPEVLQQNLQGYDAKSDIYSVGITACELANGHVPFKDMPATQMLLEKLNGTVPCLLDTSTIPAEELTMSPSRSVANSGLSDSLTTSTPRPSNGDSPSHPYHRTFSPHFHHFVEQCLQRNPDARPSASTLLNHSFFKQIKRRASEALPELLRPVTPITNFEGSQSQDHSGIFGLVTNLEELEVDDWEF
T1 sequence (Q9Y376 1-341 partner): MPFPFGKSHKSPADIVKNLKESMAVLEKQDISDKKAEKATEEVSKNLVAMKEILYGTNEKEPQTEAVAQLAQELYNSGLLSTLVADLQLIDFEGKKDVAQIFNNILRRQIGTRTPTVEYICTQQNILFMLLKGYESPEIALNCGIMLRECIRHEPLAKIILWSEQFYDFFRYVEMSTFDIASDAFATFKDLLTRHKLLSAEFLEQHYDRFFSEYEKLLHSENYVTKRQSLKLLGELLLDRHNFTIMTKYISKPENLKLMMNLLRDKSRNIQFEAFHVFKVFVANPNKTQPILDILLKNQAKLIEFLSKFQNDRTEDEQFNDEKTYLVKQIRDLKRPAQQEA
Protocol: FIGS. 8A-B. FIG. 8A. Results from an initial kinase assay with LKB1 testing candidate biosensor peptide substrate WHLQTWCGYGGKbiotinGG (SEQ ID NO:12). The data shown is the abundance of the peptide and its phosphorylated version (SEQ ID NO:14) after incubation with the kinase for 3 hr. FIG. 8B. Zoomed in version of the spectrum showing relative abundance.
The in vitro kinase assay screen was performed with LKB1 and the candidate biosensor sequence (WHLQTWCGYGGKbiotinGG (SEQ ID NO:12)). First the kinase, (15 nM final concentration), was pre-incubated in kinase reaction buffer (10 mM HEPES, 10 mM MgCl2, 0.125 ng/μL BSA, 100 μM adenosine triphosphate (ATP), pH 7.5) for 15 minutes. Then the substrate peptide, (20 μM final concentration), was added and the reaction was kept at 37° C. The reaction was quenched with 6 M urea and then the sample was desalted with C18 zip tips according to the manufacturer's protocol and analyzed on an Agilent 1200 series LC and Agilent 6130 quadrupole ESI-MS.

[2] = target: Akt (Homo sapiens, UniProt P31749); test: in vitro time-course kinase assay with Akt and Aktide biosensor (MALDI/TOF/TOF-MS readout); type: biochemical; details: 15 nM kinase, 20 μM peptide, 100 μM ATP, 37° C., time points 0, 30, 60, 120 min; result after 2 hr
Protocol: FIG. 7. […] The abundance of the biosensor (labeled “Aktide”) and its phosphorylated version (labeled “phospho Aktide”) are shown over four different time points (0, 30, 60, 120 min) which represent the amount of time the peptide was incubated with the kinase.
The in vitro kinase assay was performed with Akt and Aktide biosensor (RRRRRSVDSHGGKbiotinGG (SEQ ID NO:11)). First, the kinase (15 nM final concentration) was pre-incubated in kinase reaction buffer (10 mM HEPES, 10 mM MgCl2, 0.125 ng/μL BSA, 100 μM adenosine triphosphate (ATP), pH 7.5) for 15 minutes. Then the substrate peptide, Aktide (20 μM final concentration), was added and the reaction was kept at 37° C. The reaction was monitored at different time points by removing 20 μL aliquots and quenching with 10 μL of 6 M urea at 0, 30, 60, and 120 minutes. The samples were then desalted with C18 zip tips according to the manufacturer's protocol and analyzed on an Applied Biosystems-Sciex 5800 MALDI/TOF/TOF-MS.

Sequence of Akt (P31749 whole entry): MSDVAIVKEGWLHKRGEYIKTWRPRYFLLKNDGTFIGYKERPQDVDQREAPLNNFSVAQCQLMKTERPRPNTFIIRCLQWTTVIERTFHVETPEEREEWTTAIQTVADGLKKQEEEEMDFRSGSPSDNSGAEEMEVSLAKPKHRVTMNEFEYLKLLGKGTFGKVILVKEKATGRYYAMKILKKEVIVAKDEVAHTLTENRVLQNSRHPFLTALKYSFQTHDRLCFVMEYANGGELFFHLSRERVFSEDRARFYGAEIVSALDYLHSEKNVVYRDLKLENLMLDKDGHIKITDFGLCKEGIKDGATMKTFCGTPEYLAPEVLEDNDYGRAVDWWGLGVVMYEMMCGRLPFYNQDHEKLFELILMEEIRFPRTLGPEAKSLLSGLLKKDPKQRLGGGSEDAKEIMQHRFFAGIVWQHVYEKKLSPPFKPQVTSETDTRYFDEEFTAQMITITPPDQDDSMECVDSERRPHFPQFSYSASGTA

Row | Substance | phosphorylation of the peptide substrate by LKB1 [1] | phosphorylation of the peptide substrate by Akt (conversion to phosphorylated product) [2]
1 | WHLQTWCGYGGKbiotinGG (WHLQTWCGYGGK(Biotin)GG) [candidate LKB1 biosensor peptide substrate with C-terminal -GGKbiotinGG tag] | partially phosphorylated | 
2 | RRRRRSVDSHGGKbiotinGG (RRRRRSVDSHGGK(Biotin)GG) [artificial Akt substrate peptide biosensor with C-terminal -GGKbiotinGG tag] |  | Nearly complete conversion to phosphorylated product
